From article PMC7287156
Several values for one entry are separate records, joined by “and”; a condition that tells them apart may be missing. Identical values can stand only once.

Experiments:
[1] = molecular target: Catechol 1,2-dioxygenase from Pseudomonas stutzeri GOM2 (Pseudomonas stutzeri GOM2); assay: SEC; HiLoad 26/60 Superdex 200, 50 mM glycine-NaOH pH 8.5, no NaCl; 500 uL of protein at 20 mg/mL; mass from calibration with standard proteins
[2] = molecular target: Catechol 1,2-dioxygenase from Pseudomonas stutzeri GOM2 (Pseudomonas stutzeri GOM2); assay: native gel or EMSA; 10% acrylamide gel under non-denaturing conditions, no SDS or reducing agents; the dimer and trimer samples from SEC mixed and loaded together
[3] = molecular target: Catechol 1,2-dioxygenase from Pseudomonas stutzeri GOM2 (Pseudomonas stutzeri GOM2); assay: SEC + other: dynamic light scattering; 50 mM glycine-NaOH pH 8.5 with 700 mM NaCl (seawater salinity); SEC on Superdex 200; DLS at 1 mg/mL, 40 °C

Question: For “Catechol 1,2-dioxygenase from Pseudomonas stutzeri GOM2 (enzyme)”, which stoichiometry N [1] is on record?
Answer: The stoichiometry N was 3.

Question: And the stoichiometry N [2]?
Answer: Its stoichiometry N is 2 and 3.

Question: What about the stoichiometry N [3] of the same substance?
Answer: The stoichiometry N was 2.
